Data taken from US20190023771A1 (MERZ PHARMA, published 2019).

Molecular target: T1, non-cleaved SNAP-25206 (UniProt P60880 1-206)
T1 construct: range 1-206; also called SNAP-25206 uncleaved substrate
Experiment: ELISA and Western blots

T1 sequence (P60880 whole entry): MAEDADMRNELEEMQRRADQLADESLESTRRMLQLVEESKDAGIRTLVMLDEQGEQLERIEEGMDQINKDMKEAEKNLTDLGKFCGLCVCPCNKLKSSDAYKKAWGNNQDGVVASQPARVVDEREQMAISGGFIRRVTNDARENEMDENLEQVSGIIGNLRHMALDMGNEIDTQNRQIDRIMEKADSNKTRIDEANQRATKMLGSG

B1: mouse monoclonal antibody produced by hybridoma pCNEI 32-7-1, 3614-000 (antibody, V domains shown)
VH: EVQLVESGGGLVQPKGSLKLSCAASGYTFNTYAVNWVRQAPGKGLEWVARIRSKSYNYVTYYADSVKDRFTISRDDSQSMLYLQMNNLKTEDTAMYYCVKGNGNYVSFAYWGQGTLVTVSA
VL: QLVLTQSSSASFSLGASAKLTCTLSSQHNTYTIEWYQQQPLKPPKYVMELKKDGSHSTGDGIPDRFSGSSSGADRYLSISNIQPEDEAIYICGVGDTIKEQFVYVFGGGTKVTVL
notes: also called monoclonal antibody of the invention; DSM ACC3261
  binding result: no binding
